Measured values reported in patent EP4265717A1.

Key:
[1] = target: mobilized colistin resistance (MCR)-1 protein; test: indirect ELISA, plate coated with 0.2 ug/mL MCR-1 protein, purified antibody in doubling dilutions; settings: scale: reciprocal dilution
[2] = target: mobilized colistin resistance (MCR)-2 protein; test: indirect ELISA, plate coated with 0.2 ug/mL MCR-2 protein, purified antibody in doubling dilutions; settings: scale: reciprocal dilution

B1: anti-MCR-1/MCR-2 protein mouse mAb 1IB10 (antibody, V domains shown)
VH: VKLQQSGPELVKPGASVKMSCRASGYTFTSYVMHWVKQKPGQGLEWIGYFNPYNDGANYNEKFKGKATLSSDKSSGTAYMDLSSLTSEDSAVYYCARGPYGNYAMDYWGQGTSVTVSS
VL: DVLMTQTPLSLPVSLGDQASISCRSSQNIVCSYGNPCLEWYLQKPGQSPKLLIYKVSNRFSGVPDRFSGSGSGTDFTLKISRVEAEDLGVYYCFQSSHVPWTFGGGTELEIKR
titer [1]: > 1.28e+06 | titer [2]: > 1.28e+06

B2: anti-MCR-1/MCR-2 protein mouse mAb 2DG5 (antibody, V domains shown)
VH: VKLQESGPGLVKPSQSLSLTCTVTGYSITSDYAWNWIRQFPGNKLEWMGQISDSAVTTYNPSLKSRISINRDTSKNQFFLQLNSVTPEDTATYYCARRNFYGYNFFDYWGRGTSLTVSS
VL: DIQMTQTTSSLSASLGDRVTINCRASQDINNYLNWYQQKPDGTVKLLIYYTSRLHSGVPSRFSGSGSRTDYSLTISNLEREDIATYFCQQGKTIHPWTFGGGTKLDIKR
titer [1]: > 1.28e+06 | titer [2]: > 1.28e+06
